# According to article PMC7340257, “Crystal structure and interaction studies of human DHTKD1 provide insight into a mitochondrial megacomplex in lysine catabolism” (IUCrJ, 2020):
# B1: human DHTKD1 residues 45-919, p.R715C variant, His-tagged (enzyme, UniProt Q96HY7 45-919, looked up)
# chain: GALERPPVDHGLARLVTVYCEHGHKAAKINPLFTGQALLENVPEIQALVQTLQGPFHTAGLLNMGKEEASLEEVLVYLNQIYCGQISIETSQLQSQDEKDWFAKRFEELQKETFTTEERKHLSKLMLESQEFDHFLATKFSTVKRYGGEGAESMMGFFHELLKMSAYSGITDVIIGMPHRGRLNLLTGLLQFPPELMFRKMRGLSEFPENFSATGDVLSHLTSSVDLYFGAHHPLHVTMLPNPSHLEAVNPVAVGKTRGRQQSRQDGDYSPDNSAQPGDRVICLQVHGDASFCGQGIVPETFTLSNLPHFRIGGSVHLIVNNQLGYTTPAERGRSSLYCSDIGKLVGCAIIHVNGDSPEEVVRATRLAFEYQRQFRKDVIIDLLCYRQWGHNELDEPFYTNPIMYKIIRARKSIPDTYAEHLIAGGLMTQEEVSEIKSSYYAKLNDHLNNMAHYRPPALNLQAHWQGLAQPEAQITTWSTGVPLDLLRFVGMKSVEVPRELQMHSHLLKTHVQSRMEKMMDGIKLDWATAEALALGSLLAQGFNVRLSGQDVGRGTFSQRHAIVVCQETDDTYIPLNHMDPNQKGFLEVSNSPLSEEAVLGFEYGMSIESPKLLPLWEAQFGDFFNGAQIIFDTFISGGEAKWLLQSGIVILLPHGYDGAGPDHSSCRIECFLQMCDSAEEGVDGDTVNMFVVHPTTPAQYFHLLRRQMVRNFRKPLIVASPKMLLRLPAAVSTLQEMAPGTTFNPVIGDSSVDPKKVKTLVFCSGKHFYSLVKQRESLGAKKHDFAIIRVEELCPFPLDSLQQEMSKYKHVKDHIWSQEEPQNMGPWSFVSPRFEKQLACKLRLVGRPPLPVPAVGIGTVHLHQHEDILAKTFA
# notes: PDB 6sy1 is the wild-type parent of the same limits; source: E. coli BL21(DE3)R3-Rosetta, purified
# Biological target: the molecule itself
# Test: SEC; analytical gel filtration of hDHTKD1_(45–919) WT and p.R715C alone; 20 mM HEPES pH 7.5, 150 mM NaCl, 0.5 mM TCEP
protein,measurement,value
B1,binding result,binds
